± gives the uncertainty stated by the source.
B1: Membrane-associated guanylate kinase, WW and PDZ domain-containing protein 1, residues 352 to 401; numbered along this chain, Q96QZ7 (parent)
chain: TEELDSELELPAGWEKIEDPVYGIYYVDHINRKTQYENPVLEAKRKKQLE

Variants of: B1
Assay: abundance fitness (aPCA) (normalised: wild type 0, dead -1); higher = more abundant; growth selection in yeast, the domain comes from the species named
Conditions: Homo sapiens

Row | Variant | abundance fitness
1 | P11M | -0.185 ± 0.089
2 | P11H | -0.554 ± 0.17
3 | P11K | -0.153 ± 0.092
4 | P11T | -0.194 ± 0.082
5 | P11L | -0.35 ± 0.058
6 | I17V | 0.072 ± 0.065
7 | I17D | -0.637 ± 0.095
8 | I17P | -0.836 ± 0.14
9 | I17W | -0.322 ± 0.04
10 | I17E | -0.408 ± 0.059
11 | I17F | -0.258 ± 0.098
12 | I17C | -0.252 ± 0.077
13 | I17R | -0.01 ± 0.057
14 | I17A | -0.227 ± 0.062
15 | I17H | -0.241 ± 0.11
16 | V21K | 0.012 ± 0.095
17 | V21M | -0.517 ± 0.12
18 | V21P | -0.322 ± 0.056
19 | V21N | -0.056 ± 0.072
20 | V21W | -0.241 ± 0.075
21 | V21T | 0.081 ± 0.058
22 | V21R | -0.012 ± 0.049
23 | V21G | -0.307 ± 0.057
24 | R32S | -0.119 ± 0.041

Row | Variant | abundance fitness
25 | R32C | -0.168 ± 0.07
26 | R32L | -0.119 ± 0.055
27 | R32I | -0.387 ± 0.11
28 | R32K | -0.061 ± 0.083
29 | R32T | -0.607 ± 0.093
30 | V27L | -0.073 ± 0.062
31 | V27A | -0.096 ± 0.06
32 | V27D | 0.071 ± 0.084
33 | V27C | -0.055 ± 0.062
34 | V27T | -0.26 ± 0.042
35 | V27G | -0.378 ± 0.04
36 | V27K | 0.044 ± 0.062
37 | E37K | -0.282 ± 0.11
38 | E37P | -0.56 ± 0.087
39 | E37R | -0.401 ± 0.058
40 | E37L | -0.213 ± 0.049
41 | E37S | -0.162 ± 0.042
42 | E37Q | -0.176 ± 0.071
43 | E37W | -0.47 ± 0.046
44 | E7D | -0.039 ± 0.072
45 | E7I | -0.314 ± 0.12
46 | E7W | -0.181 ± 0.094
47 | E7R | -0.037 ± 0.044
48 | E7P | -0.217 ± 0.091

Row | Variant | abundance fitness
49 | E7N | -0.228 ± 0.14
50 | E7L | -0.057 ± 0.071
51 | E7G | 0.05 ± 0.045
52 | E7S | -0.153 ± 0.077
53 | E7K | 0.111 ± 0.1
54 | E7Q | -0.404 ± 0.11
55 | E7V | 0.03 ± 0.044
56 | E7A | 0.056 ± 0.062
57 | S6L | -0.073 ± 0.062
58 | S6C | -0.447 ± 0.12
59 | S6A | -0.033 ± 0.07
60 | S6D | -0.141 ± 0.055
61 | S6M | -0.179 ± 0.1
62 | S6I | -0.184 ± 0.083
63 | S6H | -0.203 ± 0.073
64 | I24Q | -0.225 ± 0.1
65 | I24L | -0.223 ± 0.059
66 | I24R | -0.203 ± 0.042
67 | I24V | -0.066 ± 0.06
68 | I24C | -0.22 ± 0.065
69 | I24S | -0.144 ± 0.074
70 | I24W | -0.344 ± 0.07
71 | I24P | -0.057 ± 0.055
72 | I24G | -0.208 ± 0.06

Row | Variant | abundance fitness
73 | I24E | 0.067 ± 0.082
74 | E42Y | -0.366 ± 0.055
75 | E42I | -0.117 ± 0.087
76 | E42A | -0.225 ± 0.05
77 | E42N | -0.285 ± 0.069
78 | E42K | -0.505 ± 0.091
79 | E42L | -0.231 ± 0.048
80 | E42F | -0.535 ± 0.13
81 | K33H | -0.463 ± 0.14
82 | K33N | -0.169 ± 0.12
83 | K33T | -0.158 ± 0.066
84 | K33M | -0.236 ± 0.081
85 | K33D | -0.066 ± 0.1
86 | K33L | -0.028 ± 0.039
87 | K47C | -0.232 ± 0.085
88 | K47S | 0.016 ± 0.059
89 | K47D | -0.154 ± 0.088
90 | K47R | -0.163 ± 0.043
91 | K47N | -0.318 ± 0.12
92 | K47F | -0.239 ± 0.14
93 | K47P | -0.121 ± 0.08
94 | K47W | -0.414 ± 0.072
95 | T1W | -0.351 ± 0.2
96 | T1L | -0.128 ± 0.047

Row | Variant | abundance fitness
97 | T1Y | -0.155 ± 0.074
98 | L41Y | -0.021 ± 0.075
99 | L41A | 0.038 ± 0.05
100 | L41R | -0.039 ± 0.037
101 | L41F | 0.064 ± 0.087
102 | L41G | -0.094 ± 0.04
103 | L41V | 0.001 ± 0.045
104 | L41K | -0.035 ± 0.078
105 | L41T | -0.058 ± 0.076
106 | K44M | -0.064 ± 0.07
107 | K44P | -0.27 ± 0.065
108 | K44R | -0.057 ± 0.045
109 | K44V | -0.286 ± 0.062
110 | K44D | -0.106 ± 0.082
111 | K44G | -0.068 ± 0.051
112 | K44I | -0.438 ± 0.13
113 | K44A | -0.079 ± 0.051
114 | A43P | -0.184 ± 0.079
115 | A43Y | -0.33 ± 0.1
116 | A43C | -0.246 ± 0.078
117 | A43I | -0.092 ± 0.088
118 | A43L | -0.012 ± 0.059
119 | A43R | -0.11 ± 0.042
120 | A43Q | -0.024 ± 0.047

Row | Variant | abundance fitness
121 | A43E | -0.011 ± 0.053
122 | V40Q | -0.385 ± 0.069
123 | V40L | -0.016 ± 0.038
124 | V40G | -0.047 ± 0.053
125 | V40M | -0.033 ± 0.05
126 | V40P | -0.404 ± 0.099
127 | V40K | -0.055 ± 0.041
128 | A12F | 0.107 ± 0.093
129 | A12S | -0.038 ± 0.054
130 | A12K | -0.113 ± 0.11
131 | A12L | -0.003 ± 0.056
132 | A12Y | -0.38 ± 0.11
133 | A12P | -0.098 ± 0.073
134 | R45Q | -0.032 ± 0.069
135 | R45V | -0.162 ± 0.052
136 | R45P | -0.056 ± 0.059
137 | R45D | -0.171 ± 0.072
138 | R45M | -0.159 ± 0.083
139 | R45K | 0.02 ± 0.062
140 | N31R | -0.201 ± 0.061
141 | N31M | -0.444 ± 0.088
142 | N31D | -0.28 ± 0.055
143 | N31T | -0.134 ± 0.063
144 | N31W | -0.843 ± 0.13

Row | Variant | abundance fitness
145 | N31I | -0.802 ± 0.16
146 | N31G | 0.009 ± 0.04
147 | N31E | -0.396 ± 0.069
148 | N31P | -0.663 ± 0.071
149 | P20M | -0.314 ± 0.081
150 | Q35E | -0.373 ± 0.055
151 | Q35N | -0.516 ± 0.049
152 | Q35T | 0.009 ± 0.078
153 | Q35H | -0.588 ± 0.18
154 | Q35C | -0.338 ± 0.095
155 | Q35G | -0.487 ± 0.041
156 | T34D | -0.414 ± 0.094
157 | T34H | -0.407 ± 0.09
158 | T34M | -0.265 ± 0.068
159 | T34W | -0.193 ± 0.048
160 | T34A | -0.413 ± 0.053
161 | T34V | -0.232 ± 0.045
162 | T34S | -0.11 ± 0.048
163 | T34C | 0.042 ± 0.074
164 | T34N | -0.237 ± 0.083
165 | Y25G | -0.299 ± 0.041
166 | Y25W | -0.361 ± 0.061
167 | Y25Q | -0.14 ± 0.073
